Source: US20240132550A1 (GlaxoSmithKline, published 2024)

T1: factor H (hfH) domain 6-7 (human, UniProt P08603 321-443)
T1 construct: domain: factor H 6-7 domain; also called factor H 6-7 domain; factor H domain 6-7
T1 sequence: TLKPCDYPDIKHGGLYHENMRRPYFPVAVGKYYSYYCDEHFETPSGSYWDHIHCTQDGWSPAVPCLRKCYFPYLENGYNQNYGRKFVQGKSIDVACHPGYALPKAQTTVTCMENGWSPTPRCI

B1: fHbp v1.15 E214A/S219R (other)
chain: VAADIGAGLADALTAPLDHKDKGLKSLTLEDSISQNGTLTLSAQGAERTFKAGDKDNSLNTGKLKNDKISRFDFIRQIEVDGQLITLESGEFQVYKQSHSALTALQTEQVQDSEHSGKMVAKRQFRIGDIVGEHTSFGKLPKDVMATYRGTAFGSDDAGGKLTYTIDFAAKQGHGKIEHLKSPELNVDLAAADIKPDEKHHAVISGSVLYNQAAKGSYRLGIFGGQAQEVAGSAEVETANGIRHIGLAAKQHHHHHH
notes: also called v1.15 ΔG (E214A/S219R)
B2: fHbp v1.15 E214A/E235A (other)
chain: VAADIGAGLADALTAPLDHKDKGLKSLTLEDSISQNGTLTLSAQGAERTFKAGDKDNSLNTGKLKNDKISRFDFIRQIEVDGQLITLESGEFQVYKQSHSALTALQTEQVQDSEHSGKMVAKRQFRIGDIVGEHTSFGKLPKDVMATYRGTAFGSDDAGGKLTYTIDFAAKQGHGKIEHLKSPELNVDLAAADIKPDEKHHAVISGSVLYNQAAKGSYSLGIFGGQAQEVAGSAAVETANGIRHIGLAAKQHHHHHH
notes: also called v1.15 ΔG (E214A/E235A)
B3: fHbp v1.15 (other)
chain: VAADIGAGLADALTAPLDHKDKGLKSLTLEDSISQNGTLTLSAQGAERTFKAGDKDNSLNTGKLKNDKISRFDFIRQIEVDGQLITLESGEFQVYKQSHSALTALQTEQVQDSEHSGKMVAKRQFRIGDIVGEHTSFGKLPKDVMATYRGTAFGSDDAGGKLTYTIDFAAKQGHGKIEHLKSPELNVDLAAADIKPDEKHHAVISGSVLYNQAEKGSYSLGIFGGQAQEVAGSAEVETANGIRHIGLAAKQLEHHHHHH
B4: fHbp v1.15 E214A (other)
chain: VAADIGAGLADALTAPLDHKDKGLKSLTLEDSISQNGTLTLSAQGAERTFKAGDKDNSLNTGKLKNDKISRFDFIRQIEVDGQLITLESGEFQVYKQSHSALTALQTEQVQDSEHSGKMVAKRQFRIGDIVGEHTSFGKLPKDVMATYRGTAFGSDDAGGKLTYTIDFAAKQGHGKIEHLKSPELNVDLAAADIKPDEKHHAVISGSVLYNQAAKGSYSLGIFGGQAQEVAGSAEVETANGIRHIGLAAKQLEHHHHHH
notes: also called v1.15 ΔG (E214A) + His tag

How the values were obtained:
[1] = biological target: T2, factor H, Human (Merck Millipore) (human, UniProt P08603 19-1231); assay: SPR, full-length human factor H immobilised on CM-5 chip, fHbp analyte at 250 nM
T2 construct: mature; also called full-length factor H protein; full length fH protein

[2] = biological target: T1, factor H (hfH) domain 6-7; assay: SPR, fH 6-7 immobilised on CM-5 chip, fHbp as analyte
[3] = biological target: T2, factor H, Human (Merck Millipore); assay: SPR, full-length human factor H immobilised on CM-5 chip, fHbp as analyte

T2 sequence (P08603 19-1231): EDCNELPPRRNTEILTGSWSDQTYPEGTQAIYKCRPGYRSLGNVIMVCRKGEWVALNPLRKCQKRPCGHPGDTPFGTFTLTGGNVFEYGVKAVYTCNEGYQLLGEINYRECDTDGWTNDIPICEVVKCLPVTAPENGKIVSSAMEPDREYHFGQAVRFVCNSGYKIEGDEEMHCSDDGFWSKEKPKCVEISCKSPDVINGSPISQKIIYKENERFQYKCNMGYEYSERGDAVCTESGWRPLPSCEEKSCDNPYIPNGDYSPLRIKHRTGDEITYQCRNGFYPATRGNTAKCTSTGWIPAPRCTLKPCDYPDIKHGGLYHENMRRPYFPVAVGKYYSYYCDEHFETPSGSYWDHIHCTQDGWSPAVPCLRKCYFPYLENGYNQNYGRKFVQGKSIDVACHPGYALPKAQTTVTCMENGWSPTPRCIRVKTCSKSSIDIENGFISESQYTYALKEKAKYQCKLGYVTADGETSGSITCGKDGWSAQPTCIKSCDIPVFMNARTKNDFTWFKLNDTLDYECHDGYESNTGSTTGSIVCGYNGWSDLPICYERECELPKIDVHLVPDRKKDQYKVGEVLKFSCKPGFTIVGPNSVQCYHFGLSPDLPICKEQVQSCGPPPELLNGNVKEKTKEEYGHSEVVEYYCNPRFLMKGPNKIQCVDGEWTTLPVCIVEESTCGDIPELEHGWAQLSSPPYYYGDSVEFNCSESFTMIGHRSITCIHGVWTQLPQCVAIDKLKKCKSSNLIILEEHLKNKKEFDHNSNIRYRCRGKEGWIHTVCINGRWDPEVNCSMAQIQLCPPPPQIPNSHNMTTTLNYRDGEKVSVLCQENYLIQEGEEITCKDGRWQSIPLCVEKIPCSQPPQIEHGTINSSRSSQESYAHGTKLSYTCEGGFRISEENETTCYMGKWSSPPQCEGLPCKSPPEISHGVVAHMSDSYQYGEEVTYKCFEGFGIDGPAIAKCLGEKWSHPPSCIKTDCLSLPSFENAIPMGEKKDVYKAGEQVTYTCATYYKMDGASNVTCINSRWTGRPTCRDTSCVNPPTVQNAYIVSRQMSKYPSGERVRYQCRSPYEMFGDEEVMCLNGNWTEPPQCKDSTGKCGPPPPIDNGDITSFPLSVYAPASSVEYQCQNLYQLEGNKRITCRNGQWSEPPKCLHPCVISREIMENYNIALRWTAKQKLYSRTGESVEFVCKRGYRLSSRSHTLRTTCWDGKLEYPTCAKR

Binder | binding result [1] | binding result [2] | binding result [3]
B1 | binds | no binding (tested: 250 nM) | –
B2 | – | no binding (tested: 250 nM) | no binding (tested: 250 nM)
B3 | binds | – | –
B4 | binds | – | –
